T1: human glycophorin A on human red blood cells (human, UniProt P02724 20-150)
T1 construct: whole, on cells; also called human GPA; huGPA
T1 sequence (looked up): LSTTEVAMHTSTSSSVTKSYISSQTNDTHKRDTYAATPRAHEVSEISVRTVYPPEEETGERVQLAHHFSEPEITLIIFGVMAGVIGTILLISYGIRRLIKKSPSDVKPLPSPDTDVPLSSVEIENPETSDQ

T2: glycophorin A peptide GP5 (human, biotin at the N-terminus)
T2 construct: Residues 42 to 61 of the human glycophorin A extracellular domain
T2 peptide: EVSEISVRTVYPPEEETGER

B1: TPP-9423 FVIII-scFv fusion protein (other)
chain: DIQLTQSPSFLSASVGDRVTITCRASSSVRYIYWFQQKPGKAPKLLIYATSFRQSGVPSRFSGSGSGTEYTLTISSLQPEDFATYYCHQRNSFPYTFGQGTKLEIKGGGGSGGGGSGGGGSGGGGSEVQLVQSGAEVKKPGASVKVSCKASGYTFTTYAIHWVRQAPGQGLEWMGYINPSSGYTRYNPKFKGRVTMTRDKSTSTAYMELRSLRSDDTAVYYCWTGTRDYWGQGTTVTVSSGGGSGGGGSGLVPRGSGGGSGGGGSGATRRYYLGAVELSWDYMQSDLGELPVDARFPPRVPKSFPFNTSVVYKKTLFVEFTDHLFNIAKPRPPWMGLLGPTIQAEVYDTVVITLKNMASHPVSLHAVGVSYWKASEGAEYDDQTSQREKEDDKVFPGGSHTYVWQVLKENGPMASDPLCLTYSYLSHVDLVKDLNSGLIGALLVCREGSLAKEKTQTLHKFILLFAVFDEGKSWHSETKNSLMQDRDAASARAWPKMHTVNGYVNRSLPGLIGCHRKSVYWHVIGMGTTPEVHSIFLEGHTFLVRNHRQASLEISPITFLTAQTLLMDLGQFLLFCHISSHQHDGMEAYVKVDSCPEEPQLRMKNNEEAEDYDDDLTDSEMDVVRFDDDNSPSFIQIRSVAKKHPKTWVHYIAAEEEDWDYAPLVLAPDDRSYKSQYLNNGPQRIGRKYKKVRFMAYTDETFKTREAIQHESGILGPLLYGEVGDTLLIIFKNQASRPYNIYPHGITDVRPLYSRRLPKGVKHLKDFPILPGEIFKYKWTVTVEDGPTKSDPRCLTRYYSSFVNMERDLASGLIGPLLICYKESVDQRGNQIMSDKRNVILFSVFDENRSWYLTENIQRFLPNPAGVQLEDPEFQASNIMHSINGYVFDSLQLSVCLHEVAYWYILSIGAQTDFLSVFFSGYTFKHKMVYEDTLTLFPFSGETVFMSMENPGLWILGCHNSDFRNRGMTALLKVSSCDKNTGDYYEDSYEDISAYLLSKNNAIEPRSFSQNDENQSPRSFQKKTRHYFIAAVERLWDYGMSSSPHVLRNRAQSGSVPQFKKVVFQEFTDGSFTQPLYRGELNEHLGLLGPYIRAEVEDNIMVTFRNQASRPYSFYSSLISYEEDQRQGAEPRKNFVKPNETKTYFWKVQHHMAPTKDEFDCKAWAYFSDVDLEKDVHSGLIGPLLVCHTNTLNPAHGRQVTVQEFALFFTIFDETKSWYFTENMERNCRAPCNIQMEDPTFKENYRFHAINGYIMDTLPGLVMAQDQRIRWYLLSMGSNENIHSIHFSGHVFTVRKKEEYKMALYNLYPGVFETVEMLPSKAGIWRVECLIGEHLHAGMSTLFLVYSNKCQTPLGMASGHIRDFQITASGQYGQWAPKLARLHYSGSINAWSTKEPFSWIKVDLLAPMIIHGIKTQGARQKFSSLYISQFIIMYSLDGKKWQTYRGNSTGTLMVFFGNVDSSGIKHNIFNPPIIARYIRLHPTHYSIRSTLRMELMGCDLNSCSMPLGMESKAISDAQITASSYKTNMFATWSPSKARLHLQGRSNAWRPQVNNPKEWLQVDFQKTMKVTGVTTQGVKSLLTSMYVKEFLISSSQDGHQWTLFFQNGKVKVFQGNQDSFTPVVNSLDPPLLTRYLRIHPQSWVHQIALRMEVLGCEAQDLY
notes: also called 9423 (F2196K)
B2: TPP-9711 FVIII-scFv fusion protein (other)
chain: ATRRYYLGAVELSWDYMQSDLGELPVDARFPPRVPKSFPFNTSVVYKKTLFVEFTDHLFNIAKPRPPWMGLLGPTIQAEVYDTVVITLKNMASHPVSLHAVGVSYWKASEGAEYDDQTSQREKEDDKVFPGGSHTYVWQVLKENGPMASDPLCLTYSYLSHVDLVKDLNSGLIGALLVCREGSLAKEKTQTLHKFILLFAVFDEGKSWHSETKNSLMQDRDAASARAWPKMHTVNGYVNRSLPGLIGCHRKSVYWHVIGMGTTPEVHSIFLEGHTFLVRNHRQASLEISPITFLTAQTLLMDLGQFLLFCHISSHQHDGMEAYVKVDSCPEEPQLRMKNNEEAEDYDDDLTDSEMDVVRFDDDNSPSFIQIRSVAKKHPKTWVHYIAAEEEDWDYAPLVLAPDDRSYKSQYLNNGPQRIGRKYKKVRFMAYTDETFKTREAIQHESGILGPLLYGEVGDTLLIIFKNQASRPYNIYPHGITDVRPLYSRRLPKGVKHLKDFPILPGEIFKYKWTVTVEDGPTKSDPRCLTRYYSSFVNMERDLASGLIGPLLICYKESVDQRGNQIMSDKRNVILFSVFDENRSWYLTENIQRFLPNPAGVQLEDPEFQASNIMHSINGYVFDSLQLSVCLHEVAYWYILSIGAQTDFLSVFFSGYTFKHKMVYEDTLTLFPFSGETVFMSMENPGLWILGCHNSDFRNRGMTALLKVSSCDKNTGDYYEDSYEDISAYLLSKNNAIEPRSFSQNGGGGSTGGTGGSSGGGTGSGGGGTGGSGGTDIQLTQSPSFLSASVGDRVTITCRASSSVRYIYWFQQKPGKAPKLLIYATSFRQSGVPSRFSGSGSGTEYTLTISSLQPEDFATYYCHQRNSFPYTFGQGTKLEIKGGGGSGGGGSGGGGSGGGGSEVQLVQSGAEVKKPGASVKVSCKASGYTFTTYAIHWVRQAPGQGLEWMGYINPSSGYTRYNPKFKGRVTMTRDKSTSTAYMELRSLRSDDTAVYYCWTGTRDYWGQGTTVTVSSGGGGDENQSPRSFQKKTRHYFIAAVERLWDYGMSSSPHVLRNRAQSGSVPQFKKVVFQEFTDGSFTQPLYRGELNEHLGLLGPYIRAEVEDNIMVTFRNQASRPYSFYSSLISYEEDQRQGAEPRKNFVKPNETKTYFWKVQHHMAPTKDEFDCKAWAYFSDVDLEKDVHSGLIGPLLVCHTNTLNPAHGRQVTVQEFALFFTIFDETKSWYFTENMERNCRAPCNIQMEDPTFKENYRFHAINGYIMDTLPGLVMAQDQRIRWYLLSMGSNENIHSIHFSGHVFTVRKKEEYKMALYNLYPGVFETVEMLPSKAGIWRVECLIGEHLHAGMSTLFLVYSNKCQTPLGMASGHIRDFQITASGQYGQWAPKLARLHYSGSINAWSTKEPFSWIKVDLLAPMIIHGIKTQGARQKFSSLYISQFIIMYSLDGKKWQTYRGNSTGTLMVFFGNVDSSGIKHNIFNPPIIARYIRLHPTHYSIRSTLRMELMGCDLNSCSMPLGMESKAISDAQITASSYFTNMFATWSPSKARLHLQGRSNAWRPQVNNPKEWLQVDFQKTMKVTGVTTQGVKSLLTSMYVKEFLISSSQDGHQWTLFFQNGKVKVFQGNQDSFTPVVNSLDPPLLTRYLRIHPQSWVHQIALRMEVLGCEAQDLY
notes: The entry is the mature protein; also called PPB 7816

Key:
[1] = biological target: T3, Cynomolgus monkey glycophorin A on Cynomolgus monkey red blood cells (Cynomolgus monkey); assay: partition to Cyno RBC, human HemA plasma, 120 min;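 also: FVIII fusion spiked at 1 IU/mL into RBC suspension at whole-blood density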
T3 construct: whole, on cells; also called Cyno GPA; Cyno RBC
Experimental: (§1) To evaluate partition to cynomolgus monkey or human red blood cells, whole blood was draw from Cynomolgus monkey or normal human volunteers in to anticoagulant with 4% sodium citrate (Sigma, St Louis, Mo.). The red blood cells were purified by layering the whole blood on to ficoll followed by low speed centrifugation. The supernatant containing plasma, platelets and white blood cells was discarded and the red blood cell pellet was resuspended in 10 pellet volumes of PBS (50 mM Phosphate buffer, pH7.4, 150 mM NaCl). The red blood cells were then pelleted by slow speed centrifugation and the red blood cells re-suspended in 10 volumes of PBS. This washing step was repeated 4 more times and the red blood cells finally resuspended in a volume of plasma from Hemophilia patients with less than 1% of normal levels of FVIII (GeorgeKing Bio-Medical, Overland Park, Kans.) to generate a total volume equal to the initial blood volume such that the RBC density was equal to that of normal whole blood. BDD and RBC targeted FVIII molecules were then spiked into RBC suspension in HemA plasma at 1 IU/mL, and incubated at room temperature for 2-3 hours with gentle rotation. […] An additional control was performed in which BDD or RBC targeted FVIII molecules were added at 11U/ml into the same human hemophilia A plasma and incubated for 5 minutes and 180 mins. These samples were used to determine the input FVIII activity in the presence of plasma which was used to calculate the percentage of the molecule that was bound to RBC. All plasma samples were then assayed together for FVIII activity using the Coatest SP assay (DiaPharma, Columbus, Ohio). The assay was performed following the manufacturer's instructions in a 96-well plate format. […] The plate was incubated at 37° C. for 10 minutes with shaking between each reagent addition.

[2] = biological target: T1, human glycophorin A on human red blood …; assay: partition to human RBC, vWF deficient plasma, 1 min
[3] = biological target: T1, human glycophorin A on human red blood …; assay: partition to human RBC, vWF deficient plasma, 5 min
[4] = biological target: T1, human glycophorin A on human red blood …; assay: partition to human RBC, vWF deficient plasma, 15 min
[5] = biological target: T1, human glycophorin A on human red blood …; assay: partition to human RBC, vWF deficient plasma, 30 min
[6] = biological target: T1, human glycophorin A on human red blood …; assay: partition to human RBC, vWF deficient plasma, 60 min
[7] = biological target: T1, human glycophorin A on human red blood …; assay: partition to human RBC, vWF deficient plasma, 120 min
[8] = biological target: T2, glycophorin A peptide GP5; assay: Octet, GP5 peptide on the probe, fusion protein in solution, 1:1 fit
[9] = biological target: T3, Cynomolgus monkey glycophorin A on …; assay: partition to Cyno RBC, human HemA plasma, 1 min;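 also: FVIII fusion spiked at 1 IU/mL into RBC suspension at whole-blood density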
[10] = biological target: T3, Cynomolgus monkey glycophorin A on …; assay: partition to Cyno RBC, human HemA plasma, 5 min;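 also: FVIII fusion spiked at 1 IU/mL into RBC suspension at whole-blood density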
[11] = biological target: T3, Cynomolgus monkey glycophorin A on …; assay: partition to Cyno RBC, human HemA plasma, 15 min;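 also: FVIII fusion spiked at 1 IU/mL into RBC suspension at whole-blood density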
[12] = biological target: T3, Cynomolgus monkey glycophorin A on …; assay: partition to Cyno RBC, human HemA plasma, 30 min;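 also: FVIII fusion spiked at 1 IU/mL into RBC suspension at whole-blood density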
Experimental: as §1

[13] = biological target: T3, Cynomolgus monkey glycophorin A on …; assay: partition to Cyno RBC, human HemA plasma, 60 min;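 also: FVIII fusion spiked at 1 IU/mL into RBC suspension at whole-blood density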

Row | Binder | % bound to Cyno RBC [1] | percentage bound to human RBC [2] | percentage bound to human RBC [3] | percentage bound to human RBC [4] | percentage bound to human RBC [5] | percentage bound to human RBC [6] | percentage bound to human RBC [7] | Kd [8] | koff [8] | kon [8] | % bound to Cyno RBC [9] | % bound to Cyno RBC [10] | % bound to Cyno RBC [11] | % bound to Cyno RBC [12] | % bound to Cyno RBC [13]
1 | B1 | 62.8% | 44.1% | 87.4% | 89.9% | 91.2% | 80.3% | 92.3% | 1.27 nM | 0.00066 s⁻¹ | 520000 M⁻¹ s⁻¹ | – | – | – | – | –
2 | B2 | 81.8% | 76.2% | 85.3% | 87% | 87% | 88.7% | 86.3% | – | – | – | 40.6% | 63% | 72.1% | 74.2% | 80.2%

From patent US20190359687A1 (Bayer, published 2019)
